Where no end group is shown, it is not given here.
Tests used:
[1] = biological target: T1, GABARAP(ΔG116)–NHNH methyl-fumarate 2 (UniProt O95166 1-115, C-terminal acyl hydrazide: -NHNH methyl fumarate (mimics the native glycine G116)); assay: cross-linking; competition: probe 2 (15 μM) incubated with ATG3 C1 in the presence of increasing amounts of LIR^ATG3 peptide; GABARAP–ATG3 C1 complex quantified by gel densitometry, normalized to the reaction without peptide; IC50 by nonlinear regression; conditions: both partners purified
T1 construct: GABARAP; GABARAP(ΔG116): the C-terminal glycine G116 is deleted, so the chain ends at residue 115; it may fit a chain without the first methionine (surmised); also called probe 2; GABARAP methyl fumarate; not shown: Mxe GyrA intein, C-terminal, cleaved

GABARAP = biological target: T2, GABARAP (UniProt O95166 2-116); assay: fluorescence polarisation; fluorescein-modified LIR^ATG3 peptide (linear, cyclized or truncated 103–111) with GABARAP or LC3A; triplicates; KD by nonlinear regression; conditions: both partners purified
T2 construct: GABARAP as used in fluorescence polarization and in the cocrystal
T2 sequence (O95166 2-116): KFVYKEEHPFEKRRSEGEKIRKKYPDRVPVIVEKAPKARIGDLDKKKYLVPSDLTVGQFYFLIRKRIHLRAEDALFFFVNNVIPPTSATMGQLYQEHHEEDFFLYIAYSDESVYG

T1 sequence (O95166 1-115, stated change not applied): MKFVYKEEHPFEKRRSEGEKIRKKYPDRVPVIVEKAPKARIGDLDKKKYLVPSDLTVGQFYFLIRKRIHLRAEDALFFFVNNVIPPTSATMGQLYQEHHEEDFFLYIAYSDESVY

B1: LIR (L94-H112) peptide 5 (peptide, UniProt Q9NT62 94-112, looked up)
peptide: LEAIIEEDDGDGGWVDTYH
notes: ATG3, human, LIR motif stretch L94-H112; also called linear LIR^ATG3 peptide 5; source: synthetic peptide (chemically prepared)
B1 gave an IC50 [1] of 104 µM.

B2: Cyclic peptide 6 (peptide)
chain: LEAIIEEDDGDGGWVDTYHC
modifications: thioether (positions not given here); not fully specified (bridges); also: cyclized by selective cysteine alkylation, partner of Cys not given here
B2 was tested, and the IC50 [1] was 24 µM.

B3: fluorescein-modified truncated (103–111) LIR^ATG3 peptide (peptide, UniProt Q9NT62 103-111, looked up)
peptide: GDGGWVDTY
modifications: also: fluorescein, position not given here
notes: ATG3, human, amino acids G103-Y111 including the core LIR motif; also called truncated peptide
B3: binds (GABARAP).

Source: article PMC10214526 (ACS Central Science, 2023)
